The record followed here is publication PMC12893043.

For this experiment, the target named is GFP(+36). Description: time-resolved fluorescence anisotropy; AfFtn-GFP(+36) assembly at pH 7.6 with 500 mM NaCl and with 175 mM NaCl; [GFP] = 1 uM; biexponential fit (instrument response, rotational diffusion of the assembly), no homoFRET; triplicate. On the technique in general: Fluorescence polarisation rises when a labelled molecule tumbles more slowly, as on binding a larger partner.

Regarding AfFtn (from UniProt O29424 1-173), the stoichiometry N (usually the number of molecules, sites or subunits per partner or assembly) lay in the range of 12 to 1.
